From patent US20250320305A1 (Hoffmann-La Roche, published 2025)

What was measured:
[1] = target: T1, human CD40 extracellular domain with C-terminal His-AviTag (human, UniProt P25942 21-193); assay: SPR, antibody captured, CD40 ECD analyte;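 also: biacore SPR at 25 °C in PBS-T pH 7.4, CD40 ECD analyte from 300 nM in 1:3 series, 300 s association, up to 1200 s dissociation, double-referenced, Langmuir 1:1 fit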
T1 construct: not shown: C-terminal His-AviTag

[2] = target: T2, human CD40 expressed on cells (human, UniProt P25942 21-277); assay: flow cytometry, Raji cells;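 also: cell binding of antibodies to Raji cells detected by flow cytometry using an Alexa488-labelled anti-human IgG secondary antibody, primary incubation 1 h at 4 °C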
T2 construct: also called huCD40; Raji cells
Method: CD40 positive cells (Raji cells) were detatched from the culture bottle using Trypsin and were counted using a Casy cell counter. After pelleting at 4° C., the cells were resuspended in FACS Buffer (2.5% FCS in PBS), adjusted to 2.0E+06 cells/mL, and dispensed to 96-well PP V-bottom-plates (25 μL/well=5.0E+04Zellen/well).
The CD40 specific antibodies were adjusted to 20 μg/mL in FACS buffer, resulting in a final concentration of 10 μg/mL. 20 μl were added to 25 μl cell suspension and incubated for 1 h at 4° C. The cells were then washed twice in FACS buffer. After washing, the cells were resuspended in 50 μL FACS-buffer containing secondary antibody (<huIgG>-Alexa488, c=10 μg/mL) and incubated 1 h bei 4° C. The cells were then washed twice in FACS buffer and resuspended in 70 μl/well FACS buffer for measurement using a FACS Canto (BD, Pharmingen).

Kd [1] [nM] | koff [1] [s⁻¹] | kon [1] [M⁻¹ s⁻¹] | EC50 [2] [µg/mL] | Binder
2.5 | 0.00593 | 2.4e+06 | 0.09 | P1AE0817, humanized anti-CD40 antibody VH1a/VL1a, huIgG1_LALA_PG (antibody, V domains shown) VH: QVQLVQSGAEVKKPGASVKVSCKASGYSFTGYYIHWVRQAPGQSLEWMGRVIPNAGGTSYNQKFKGRVTLTVDKSISTAYMELSRLRSDDTAVYYCAREGIYWWGQGTTVTVSS VL: DIVMTQTPLSLSVTPGQPASISCRSSQSLVHSNGNTFLHWYLQKPGQSPQLLIYTVSNRFSGVPDRFSGSGSGTDFTLKISRVEAEDVGVYFCSQTTHVPWTFGGGTKVEIKR
3.4 | 0.00898 | 2.68e+06 | 0.13 | P1AE0993, humanized anti-CD40 antibody VH1a/VL1c, huIgG1_LALA_PG (antibody, V domains shown, huIgG1 with effector silent Fc (P329G, L234A, L235A)) VH: QVQLVQSGAEVKKPGASVKVSCKASGYSFTGYYIHWVRQAPGQSLEWMGRVIPNAGGTSYNQKFKGRVTLTVDKSISTAYMELSRLRSDDTAVYYCAREGIYWWGQGTTVTVSS VL: DVVVTQTPLSLSVTPGQPASISCRSSQSLVHSNGNTFLHWYLQKPGQSPQLLIYTVSNRFSGVPDRFSGSGSGTDFTLKISRVEAEDVGVYFCSQTTHVPWTFGGGTKVEIK
3.2 | 0.00847 | 2.63e+06 | 0.14 | P1AE0818, humanized anti-CD40 antibody VH1c/VL1c, huIgG1_LALA_PG (antibody, V domains shown, huIgG1 with effector silent Fc (P329G, L234A, L235A)) VH: QVQLVQSGAEVKKPGASVKVSCKASGYSFTGYYIHWVRQAPGQSLEWMGRVIPNAGGTSYNQKFKGRVTLTVDKSISTAYMELSRLRSDDTAVYYCAREGIYWWGHGTTVTVSS VL: DVVVTQTPLSLSVTPGQPASISCRSSQSLVHSNGNTFLHWYLQKPGQSPQLLIYTVSNRFSGVPDRFSGSGSGTDFTLKISRVEAEDVGVYFCSQTTHVPWTFGGGTKVEIK
2.3 | 0.00603 | 2.59e+06 | 0.12 | P1AE0997, humanized anti-CD40 antibody VH1c/VL1a, huIgG1_LALA_PG (antibody, V domains shown, huIgG1 with effector silent Fc (P329G, L234A, L235A)) VH: QVQLVQSGAEVKKPGASVKVSCKASGYSFTGYYIHWVRQAPGQSLEWMGRVIPNAGGTSYNQKFKGRVTLTVDKSISTAYMELSRLRSDDTAVYYCAREGIYWWGHGTTVTVSS VL: DIVMTQTPLSLSVTPGQPASISCRSSQSLVHSNGNTFLHWYLQKPGQSPQLLIYTVSNRFSGVPDRFSGSGSGTDFTLKISRVEAEDVGVYFCSQTTHVPWTFGGGTKVEIK
3.4 | 0.00877 | 2.59e+06 | 0.11 | P1AE0819, humanized anti-CD40 antibody VH1d/VL1d, huIgG1_LALA_PG (antibody, V domains shown, huIgG1 with effector silent Fc (P329G, L234A, L235A)) VH: QVQLVQSGAEVKKPGASVKVSCKASGYSFTGYYIHWVRQAPGQSLEWMGRVIPNAGGTSYNQKFKGRVTLSVDKSISTAYMELSRLRSDDTAVYYCAREGIYWWGQGTTVTVSS VL: DVVVTQTPLSLSVTPGQPASISCRSSQSLVHSNGNTFLHWYLQKPGQSPQLLIYTVSNRFSGVPDRFSGSGSGTDFTLKISRVEAEDVGVYFCSQTTHVPWTFGGGTKLEIK
3.5 | 0.00908 | 2.59e+06 | 0.12 | P1AE0996, humanized anti-CD40 antibody VH1a/VL1d, huIgG1_LALA_PG (antibody, V domains shown, huIgG1 with effector silent Fc (P329G, L234A, L235A)) VH: QVQLVQSGAEVKKPGASVKVSCKASGYSFTGYYIHWVRQAPGQSLEWMGRVIPNAGGTSYNQKFKGRVTLTVDKSISTAYMELSRLRSDDTAVYYCAREGIYWWGQGTTVTVSS VL: DVVVTQTPLSLSVTPGQPASISCRSSQSLVHSNGNTFLHWYLQKPGQSPQLLIYTVSNRFSGVPDRFSGSGSGTDFTLKISRVEAEDVGVYFCSQTTHVPWTFGGGTKLEIK
4.2 | 0.00699 | 1.68e+06 | 0.12 | P1AE0400, humanized anti-CD40 antibody VH2a/VL2a, huIgG1_LALA_PG (antibody, V domains shown, also called VL2a/VH2a) VH: EVQLLESGGGLVQPGGSLRLSCAASGYSFTGYYIHWVRQAPGKGLEWVGRVIPNAGGTSYNQKFKGRFTISVDNSKNTAYLQMNSLRAEDTAVYYCAREGIYWWGQGTTVTVSS VL: DIQMTQSPSSLSASVGDRVTITCRSSQSLVHSNGNTFLHWYQQKPGKAPKLLIYTVSNRFSGVPSRFSGSGSGTDFTLTISSLQPEDFATYFCSQTTHVPWTFGGGTKVEIKR
4.2 | 0.00693 | 1.63e+06 | 0.11 | P1AE0404, humanized anti-CD40 antibody VH2a/VL2b, huIgG1_LALA_PG (antibody, V domains shown, huIgG1 with effector silent Fc (P329G, L234A, L235A); also called VL2b/VH2a) VH: EVQLLESGGGLVQPGGSLRLSCAASGYSFTGYYIHWVRQAPGKGLEWVGRVIPNAGGTSYNQKFKGRFTISVDNSKNTAYLQMNSLRAEDTAVYYCAREGIYWWGQGTTVTVSS VL: DIQMTQSPSSLSASVGDRVTITCRSSQSLVHSNGNTFLHWYQQKPGQSPKLLIYTVSNRFSGVPSRFSGSGSGTDFTLTISSLQPEDFATYFCSQTTHVPWTFGGGTKVEIK
4.2 | 0.00709 | 1.67e+06 | 0.09 | P1AE0406, humanized anti-CD40 antibody VH2c/VL2b, huIgG1_LALA_PG (antibody, V domains shown, huIgG1 with effector silent Fc (P329G, L234A, L235A); also called VL2b/VH2c) VH: EVQLLESGGGLVQPGGSLRLSCAASGYSFTGYYIHWVRQAPGKGLEWVGRVIPNAGGTSYNQKFKGRFTISVDNSKNTAYLQMNSLRAEDTAVYYCAREGIYWWGHGTTVTVSS VL: DIQMTQSPSSLSASVGDRVTITCRSSQSLVHSNGNTFLHWYQQKPGQSPKLLIYTVSNRFSGVPSRFSGSGSGTDFTLTISSLQPEDFATYFCSQTTHVPWTFGGGTKVEIK
30 | 0.0355 | 1.19e+06 | 0.12 | P1AE0407, humanized anti-CD40 antibody VH2d/VL2b, huIgG1_LALA_PG (antibody, V domains shown, huIgG1 with effector silent Fc (P329G, L234A, L235A); also called VL2b/VH2d) VH: EVQLLESGGGLVQPGGSLRLSCAASGYSFTGYYIHWVRQAPGKGLEWVGRVIPNAGGTSYGDSVKGRFTISVDNSKNTAYLQMNSLRAEDTAVYYCAREGIYWWGQGTTVTVSS VL: DIQMTQSPSSLSASVGDRVTITCRSSQSLVHSNGNTFLHWYQQKPGQSPKLLIYTVSNRFSGVPSRFSGSGSGTDFTLTISSLQPEDFATYFCSQTTHVPWTFGGGTKVEIK
4.6 | 0.00787 | 1.69e+06 | 0.13 | P1AE0401, humanized anti-CD40 antibody VH2b/VL2a, huIgG1_LALA_PG (antibody, V domains shown, huIgG1 with effector silent Fc (P329G, L234A, L235A); also called VL2a/VH2b) VH: EVQLLESGGGLVQPGGSLRLSCAASGYSFTGYYIHWVRQAPGKSLEWVGRVIPNAGGTSYNQKFKGRFTISVDNSKNTAYLQMNSLRAEDTAVYYCAREGIYWWGQGTTVTVSS VL: DIQMTQSPSSLSASVGDRVTITCRSSQSLVHSNGNTFLHWYQQKPGKAPKLLIYTVSNRFSGVPSRFSGSGSGTDFTLTISSLQPEDFATYFCSQTTHVPWTFGGGTKVEIK
4.2 | 0.00709 | 1.67e+06 | 0.13 | P1AE0402, humanized anti-CD40 antibody VH2c/VL2a, huIgG1_LALA_PG (antibody, V domains shown, huIgG1 with effector silent Fc (P329G, L234A, L235A); also called VL2a/VH2c) VH: EVQLLESGGGLVQPGGSLRLSCAASGYSFTGYYIHWVRQAPGKGLEWVGRVIPNAGGTSYNQKFKGRFTISVDNSKNTAYLQMNSLRAEDTAVYYCAREGIYWWGHGTTVTVSS VL: DIQMTQSPSSLSASVGDRVTITCRSSQSLVHSNGNTFLHWYQQKPGKAPKLLIYTVSNRFSGVPSRFSGSGSGTDFTLTISSLQPEDFATYFCSQTTHVPWTFGGGTKVEIK
5.1 | 0.00814 | 1.61e+06 | 0.09 | P1AE0405, humanized anti-CD40 antibody VH2b/VL2b, huIgG1_LALA_PG (antibody, V domains shown, huIgG1 with effector silent Fc (P329G, L234A, L235A); also called VL2b/VH2b) VH: EVQLLESGGGLVQPGGSLRLSCAASGYSFTGYYIHWVRQAPGKSLEWVGRVIPNAGGTSYNQKFKGRFTISVDNSKNTAYLQMNSLRAEDTAVYYCAREGIYWWGQGTTVTVSS VL: DIQMTQSPSSLSASVGDRVTITCRSSQSLVHSNGNTFLHWYQQKPGQSPKLLIYTVSNRFSGVPSRFSGSGSGTDFTLTISSLQPEDFATYFCSQTTHVPWTFGGGTKVEIK
29 | 0.0407 | 1.4e+06 | 0.12 | P1AE0403, humanized anti-CD40 antibody VH2d/VL2a, huIgG1_LALA_PG (antibody, V domains shown, also called VL2a/VH2d) VH: EVQLLESGGGLVQPGGSLRLSCAASGYSFTGYYIHWVRQAPGKGLEWVGRVIPNAGGTSYGDSVKGRFTISVDNSKNTAYLQMNSLRAEDTAVYYCAREGIYWWGQGTTVTVSS VL: DIQMTQSPSSLSASVGDRVTITCRSSQSLVHSNGNTFLHWYQQKPGKAPKLLIYTVSNRFSGVPSRFSGSGSGTDFTLTISSLQPEDFATYFCSQTTHVPWTFGGGTKVEIKR
